Source: US20160136280A1, “STABLE INTRAVENOUS FORMULATION” (HOFFMANN-LA ROCHE INC., priority 2013, published 2016)

Tests used:
Water solubility = type: physicochemical
Light stability = type: physicochemical; settings: forms the base compound and other degradants
Oxidation stability = type: physicochemical; settings: base compound is the major oxidation product

| SMILES | hydrolysis kinetics in aqueous solutions (aqueous solutions, base compound is the major degradation product) | most stable pH range (from stability perspective) | solubility in water (Water solubility) | sensitivity to light (Light stability) | sensitivity to oxidation (Oxidation stability) |
| --- | --- | --- | --- | --- | --- |
| COCCOCCOC(=O)OC(C)OC(=O)c1ccc(NC(=O)[C@@H]2N[C@@H](CC(C)(C)C)[C@](C#N)(c3ccc(Cl)cc3F)[C@H]2c2cccc(Cl)c2F)c(OC)c1 (stereo partly drawn) [Compound A, 4-{[(2R, 3S, 5S)-4-(4-chloro-2-fluoro-phenyl)-3-(3-chloro-2-fluoro-phenyl)-4-cyano-5-(2,2-dimethyl-propyl)-pyrrolidine-2-carbonyl]-amino}-3-methoxy-benzoic Acid 1-[2-(2-methoxy-ethoxy)-ethoxycarbonyloxy]-ethyl ester] | first-order kinetics | 3-5 pH | relatively more soluble in water | light sensitive | vulnerable to oxidation |
| COc1cc(C(=O)O)ccc1NC(=O)[C@@H]1N[C@@H](CC(C)(C)C)[C@](C#N)(c2ccc(Cl)cc2F)[C@H]1c1cccc(Cl)c1F [base compound, 4-{[(2R,3S,4R,5S)-3-(3-chloro-2-fluoro-phenyl)-4-(4-chloro-2-fluoro-phenyl)-4-cyano-5-(2,2-dimethyl-propyl)-pyrrolidine-2-carbonyl]-amino}-3-methoxy-benzoic acid] | – | – | practically water insoluble | – | – |
